Several values for one entry are separate records, joined by “and”; a condition that tells them apart may be missing. Equal entries are not always repeated.

The target in data set [1] is T1, SETD1A RRM domain (human, UniProt O15047 89-197). In words: MST. The conditions noted are these: EMSA: 2 nM biotinylated RNA, LightShift RNA EMSA kit protocol, 30 min room temperature, 6% native PAGE in 0.5x TBE; MST: 40% MST power, LED 20-40%, buffer and ….
Data set [2] has as its target T1, SETD1A RRM domain. In words: MST; back diffusion; EMSA: 2 nM biotinylated RNA, LightShift RNA EMSA kit protocol, 30 min room temperature, 6% native PAGE in 0.5x TBE; MST: 40% MST power, LED 20-40%, buffer and temperature not in material. Particulars: protein: recombinant; tags: His (pET28-MHL vector, HisTrap purified); label: uniformly labeled (MST). A general note: In EMSA bound probe runs differently from free probe, usually more slowly.

For data set [3], the target named is T1, SETD1A RRM domain. In words: MST; thermophoresis; EMSA: 2 nM biotinylated RNA, LightShift RNA EMSA kit protocol, 30 min room temperature, 6% native PAGE in 0.5x TBE; MST: 40% MST power, LED 20-40%, buffer and temperature not in material. The conditions noted are these: protein: recombinant; tags: His (pET28-MHL vector, HisTrap purified); label: uniformly labeled (MST).

For data set [4], the target named is T1, SETD1A RRM domain. In words: MST; T-jump; EMSA: 2 nM biotinylated RNA, LightShift RNA EMSA kit protocol, 30 min room temperature, 6% native PAGE in 0.5x TBE; MST: 40% MST power, LED 20-40%, buffer and temperature not in material. Particulars: protein: recombinant; tags: His (pET28-MHL vector, HisTrap purified); label: uniformly labeled (MST).

T1 sequence (O15047 89-197): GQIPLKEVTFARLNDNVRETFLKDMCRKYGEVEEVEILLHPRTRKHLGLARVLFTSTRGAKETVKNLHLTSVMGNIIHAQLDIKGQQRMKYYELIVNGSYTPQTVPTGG

With NEAT1_2 (12_13k segment), the Kd in the data set with SETD1A RRM domain [1] was 1520 nM and 1890 nM and 1110 nM.
As for SCARNA7, in the data set with SETD1A RRM domain [1], the Kd was 1280 nM and 310 nM and 1170 nM.
SETD1B mRNA (RRM coding region): the Kd with SETD1A RRM domain [1] was found to be 310 nM.
Turning to “SETD1A mRNA (N-terminal half coding region)”, the Kd with SETD1A RRM domain [1] was 210 nM and 60 nM.
With TP53TG1, the Kd with SETD1A RRM domain [1] was 670 nM and 690 nM and 1050 nM.
On to SNHG8, for which, in the data set with SETD1A RRM domain [1], the Kd is 870 nM and 2190 nM and 1190 nM.
Regarding AAGAAUGGCCUCGCGGAGGCAUGCGUCAUGCUAGCGUGCGGGGUACUCUU (ssRNA) [Random50 (R50)], the Kd with SETD1A RRM domain [2] turned out to be 11800 nM; in the data set with SETD1A RRM domain [3], 28100 nM; in the data set with SETD1A RRM domain [4], 15500 nM.

The Kd is the equilibrium constant for the complex coming apart.

The values are drawn from article PMC10671326, “In Vivo and In Vitro Characterization of the RNA Binding Capacity of SETD1A (KMT2F)”.
